This is an account of results in patent US20220389394A1 (Gilead, published 2022).

The target of assay [1] is T1, recombinant human FcRn (human, UniProt P55899 24-297; P61769 21-119, limits assumed).
T1 construct: a beta-2-microglobulin chain is not mentioned; also called human recombinant FcRn
Briefly: FcRn ELISA. On the technique in general: In an ELISA, binding on a coated surface is turned into a signal by an enzyme label.

Assay [2] addresses T2, human FLT3 on the AML5 cell line (human, UniProt P36888 27-993).
T2 sequence (looked up): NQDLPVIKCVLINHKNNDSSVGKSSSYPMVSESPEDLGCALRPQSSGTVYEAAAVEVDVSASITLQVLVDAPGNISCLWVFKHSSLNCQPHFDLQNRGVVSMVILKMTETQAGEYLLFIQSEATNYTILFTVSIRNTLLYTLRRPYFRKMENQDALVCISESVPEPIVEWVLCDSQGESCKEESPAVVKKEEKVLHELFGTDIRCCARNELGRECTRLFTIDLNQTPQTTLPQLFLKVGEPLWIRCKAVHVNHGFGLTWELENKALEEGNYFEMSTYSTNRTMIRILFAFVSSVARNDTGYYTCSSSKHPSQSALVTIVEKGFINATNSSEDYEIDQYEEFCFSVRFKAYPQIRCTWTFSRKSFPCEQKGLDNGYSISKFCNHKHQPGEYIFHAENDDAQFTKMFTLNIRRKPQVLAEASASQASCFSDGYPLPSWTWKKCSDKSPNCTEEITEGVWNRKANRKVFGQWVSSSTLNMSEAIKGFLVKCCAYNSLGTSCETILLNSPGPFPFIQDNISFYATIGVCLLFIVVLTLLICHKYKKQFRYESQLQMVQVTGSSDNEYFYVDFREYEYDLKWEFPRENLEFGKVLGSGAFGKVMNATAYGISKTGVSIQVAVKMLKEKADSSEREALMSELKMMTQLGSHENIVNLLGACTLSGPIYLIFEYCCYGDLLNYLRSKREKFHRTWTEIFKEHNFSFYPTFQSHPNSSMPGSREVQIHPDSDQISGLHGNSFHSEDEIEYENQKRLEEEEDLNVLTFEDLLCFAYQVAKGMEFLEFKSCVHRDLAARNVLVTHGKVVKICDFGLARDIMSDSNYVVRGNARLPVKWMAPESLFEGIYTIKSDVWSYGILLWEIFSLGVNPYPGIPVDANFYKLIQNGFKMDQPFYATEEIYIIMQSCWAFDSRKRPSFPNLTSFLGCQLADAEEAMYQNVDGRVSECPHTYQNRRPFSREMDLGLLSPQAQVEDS
Briefly: cell-based or functional assay.

Assay [3] concerns the target T3, recombinant human C1q protein (Fitzgerald) (human, UniProt P02745 23-245; P02746 28-253; P02747 29-245, limits assumed).
T3 construct: also called human recombinant complement protein, C1q
Briefly: ELISA, test article immobilized, C1q added; text: devoid of C1q binding ability.

Assay [4] deals with T1, recombinant human FcRn. Briefly: ELISA; recombinant human FcRn coated, serially diluted test article, anti-human (H+L)-HRP, 4PL fit. As for the experimental part: (§1) Graph is a result of one experiment. Experiment was performed in duplicate. Error bars represent standard deviation of the mean values.
(§2) Signal was developed using TMB substrate then quenched prior to reading absorbance at 450-650 nm on a SpectraMax plate reader.

For assay [5], the target named is T4, his-tagged recombinant human Flt3 receptor (Sino Biologicals) (human, UniProt P36888 27-541, limits assumed).
T4 construct: Bought protein; also called human recombinant FLT3; not shown: His tag
T4 sequence (looked up): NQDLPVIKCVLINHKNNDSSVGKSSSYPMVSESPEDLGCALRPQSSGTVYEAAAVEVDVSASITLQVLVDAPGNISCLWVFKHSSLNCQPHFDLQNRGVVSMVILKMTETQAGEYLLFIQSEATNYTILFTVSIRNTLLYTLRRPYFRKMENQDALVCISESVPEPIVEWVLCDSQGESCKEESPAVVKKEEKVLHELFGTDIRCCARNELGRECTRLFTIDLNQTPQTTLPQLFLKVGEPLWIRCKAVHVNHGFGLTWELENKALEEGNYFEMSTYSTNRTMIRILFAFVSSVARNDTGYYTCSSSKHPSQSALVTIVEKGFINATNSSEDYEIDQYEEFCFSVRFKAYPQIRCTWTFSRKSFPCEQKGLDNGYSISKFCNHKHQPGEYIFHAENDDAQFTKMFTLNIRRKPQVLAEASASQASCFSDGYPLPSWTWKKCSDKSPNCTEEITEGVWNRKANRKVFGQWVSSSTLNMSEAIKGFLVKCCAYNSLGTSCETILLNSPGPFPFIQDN
Briefly: ELISA; His-tagged recombinant human Flt3 on nickel plate, serially diluted Flt3L-Fc, anti-human (H+L)-HRP, 4PL fit. As for the experimental part: as §1
(§3) Signal was developed using TMB substrate then quenched prior to reading absorbance at 450 nm on a SpectraMax plate reader.

For assay [6], the target named is T2, human FLT3 on the AML5 cell line. Briefly: cell-based or functional assay. The source holds these as a separate data set.
For assay [7] the target is unchanged. Nature of the assay: cell-based or functional assay. This is another data set of the same source.
Assay [8] shares this target. Briefly: cell-based or functional assay. This is another data set of the same source.
The target is the same in assay [9]. Briefly: cell-based or functional assay. The source holds these as a separate data set.
Assay [10] deals with T3, recombinant human C1q protein …. Nature of the assay: ELISA, test article immobilized, C1q added; text: devoid of C1q binding ability. This is another data set of the same source.
In assay [11] the target is T4, his-tagged recombinant human Flt3 …. Briefly: ELISA; His-tagged recombinant human Flt3 on nickel plate, serially diluted Flt3L-Fc, anti-human (H+L)-HRP, 4PL fit.
Text: Graph is a result of one experiment.
as §3
The source holds these as a separate data set.

In assay [12] the target is T1, recombinant human FcRn. Nature of the assay: ELISA; recombinant human FcRn coated, serially diluted test article, anti-human (H+L)-HRP, 4PL fit; estimate, no saturating signal. As for the experimental part:
as §1, §2

Where two headings read alike, the source gives them in different places.

T1 sequence (P55899 24-297 limits assumed, chain 1 of 2): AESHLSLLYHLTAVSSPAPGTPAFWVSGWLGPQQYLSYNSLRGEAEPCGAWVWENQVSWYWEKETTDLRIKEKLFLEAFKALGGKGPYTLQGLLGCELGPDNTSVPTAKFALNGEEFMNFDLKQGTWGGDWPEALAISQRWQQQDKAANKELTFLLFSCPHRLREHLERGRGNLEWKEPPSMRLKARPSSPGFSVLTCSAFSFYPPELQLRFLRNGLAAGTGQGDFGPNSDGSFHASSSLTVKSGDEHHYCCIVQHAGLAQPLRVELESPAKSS
T1 sequence (P61769 21-119 limits assumed, chain 2 of 2): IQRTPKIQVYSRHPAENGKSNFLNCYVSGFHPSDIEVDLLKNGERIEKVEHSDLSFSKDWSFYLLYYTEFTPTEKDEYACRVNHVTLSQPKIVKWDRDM
T3 sequence (P02745 23-245 limits assumed, chain 1 of 3): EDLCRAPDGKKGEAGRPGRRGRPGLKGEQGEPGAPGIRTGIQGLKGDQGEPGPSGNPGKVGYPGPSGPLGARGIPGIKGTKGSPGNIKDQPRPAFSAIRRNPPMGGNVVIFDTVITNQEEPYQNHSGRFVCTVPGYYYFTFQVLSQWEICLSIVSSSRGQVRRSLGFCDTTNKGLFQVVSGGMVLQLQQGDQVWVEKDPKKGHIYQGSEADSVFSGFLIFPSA
T3 sequence (P02746 28-253 limits assumed, chain 2 of 3): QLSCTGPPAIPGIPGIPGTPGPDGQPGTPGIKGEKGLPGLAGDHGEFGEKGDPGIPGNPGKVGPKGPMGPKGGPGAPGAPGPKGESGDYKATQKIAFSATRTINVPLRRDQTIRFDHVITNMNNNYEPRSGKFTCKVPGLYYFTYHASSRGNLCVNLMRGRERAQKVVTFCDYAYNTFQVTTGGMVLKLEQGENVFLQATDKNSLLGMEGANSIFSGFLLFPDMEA
T3 sequence (P02747 29-245 limits assumed, chain 3 of 3): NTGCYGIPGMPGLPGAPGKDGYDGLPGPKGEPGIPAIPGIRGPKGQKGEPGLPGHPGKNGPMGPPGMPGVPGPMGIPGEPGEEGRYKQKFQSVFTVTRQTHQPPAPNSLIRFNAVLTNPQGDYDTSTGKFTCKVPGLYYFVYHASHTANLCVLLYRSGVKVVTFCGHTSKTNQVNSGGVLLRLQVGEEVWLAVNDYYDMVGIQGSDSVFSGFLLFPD

B1: human FLT3-ligand (Δ5 amino acid) human IgG4 (S228P/F234A/L235A/M252Y/S254T/T256E) fusion protein (SEQ ID NO:14) (Fc fusion)
chain: TQDCSFQHSPISSDFAVKIRELSDYLLQDYPVTVASNLQDEELCGGLWRLVLAQRWMERLKTVAGSKMQGLLERVNTEIHFVTKCAFQPPPSCLRFVQTNISRLLQETSEQLVALKPWITRQNFSRCLELQCQPDSSTLPPPWSPRPLEATAESKYGPPCPPCPAPEAAGGPSVFLFPPKPKDTLYITREPEVTCVVVDVSQEDPEVQFNWYVDGVEVHNAKTKPREEQFNSTYRVVSVLTVLHQDWLNGKEYKCKVSNKGLPSSIEKTISKAKGQPREPQVYTLPPSQEEMTKNQVSLTCLVKGFYPSDIAVEWESNGQPENNYKTTPPVLDSDGSFFLYSRLTVDKSRWQEGNVFSCSVMHEALHNHYTQKSLSLSLGK
notes: also called FLT3L ECD (Δ C-term 5aa (PTAPQ)) - hG4 (S228P/F234A/L235A/M252Y/S254T/T256E)
For orientation: EC50 means the concentration that produces a half-maximal response. In the case of B1, the “fold increase in FcRn binding against SEQ ID NO:6” value with recombinant human FcRn [1] was 2 fold. Further, the “EC50 (nM), AML5 proliferation” value in assay [2] was determined as 0.046 nM. Further, in assay [3], the binding result is recorded as “no binding (tested: 94 nM (highest of the titration))”. Besides, the values for the EC50 (in the assay with recombinant human FcRn [4]; in assay [5]) were 178 nM and 0.92 nM, respectively.

B2: human FLT3-ligand human hingeless IgG1 fusion protein (SEQ ID NO:1) (Fc fusion)
chain: TQDCSFQHSPISSDFAVKIRELSDYLLQDYPVTVASNLQDEELCGGLWRLVLAQRWMERLKTVAGSKMQGLLERVNTEIHFVTKCAFQPPPSCLRFVQTNISRLLQETSEQLVALKPWITRQNFSRCLELQCQPDSSTLPPPWSPRPLEATAPTAPQGGPSVFLFPPKPKDTLMISRTPEVTCVVVDVSHEDPEVKFNWYVDGVEVHNAKTKPREEQYNSTYRVVSVLTVLHQDWLNGKEYKCKVSNKALPAPIEKTISKAKGQPREPQVYTLPPSREEMTKNQVSLTCLVKGFYPSDIAVEWESNGQPENNYKTTPPVLDSDGSFFLYSKLTVDKSRWQQGNVFSCSVMHEALHNHYTQKSLSLSPGK
notes: also called FLT3L ECD-hingeless hG1; hFLT3L ECD
For B2, the “EC50 (nM), AML5 proliferation” value in [6] was determined as 0.04 nM; in assay [7], 0.034 nM; in [8], 0.078 nM; in assay [9], 0.08 nM; in assay [2], 0.05 nM. Besides, in assay [10], the binding result is on record as “no binding (tested: 94 nM (highest of the titration))”. The EC50 in the assay with recombinant human FcRn [4] was 2330 nM; in [11], 0.12 nM; in [5] it was 0.81 nM; with recombinant human FcRn [12], ~151 nM.

B3: human FLT3-ligand human IgG1 fusion protein (SEQ ID NO:21) (Fc fusion)
chain: TQDCSFQHSPISSDFAVKIRELSDYLLQDYPVTVASNLQDEELCGGLWRLVLAQRWMERLKTVAGSKMQGLLERVNTEIHFVTKCAFQPPPSCLRFVQTNISRLLQETSEQLVALKPWITRQNFSRCLELQCQPDSSTLPPPWSPRPLEATAPTAPQGGPSVFLFPPKPKDTLMISRTPEVTCVVVDVSHEDPEVKFNWYVDGVEVHNAKTKPREEQYNSTYRVVSVLTVLHQDWLNGKEYKCKVSNKALPAPIEKTISKAKGQPREPQVYTKPPSREEMTKNQVSLSCLVKGFYPSDIAVEWESNGQPENNYKTTVPVLDSDGSFRLASYLTVDKSRWQQGNVFSCSVMHEALHNHYTQKSLSLSPGK
As to B3, the “EC50 (nM), AML5 proliferation” value in assay [6] turned out to be 0.035 nM.

B4: human FLT3-ligand human hingeless IgG1 (M252Y/S254T/T256E) fusion protein (SEQ ID NO:9) (Fc fusion)
chain: TQDCSFQHSPISSDFAVKIRELSDYLLQDYPVTVASNLQDEELCGGLWRLVLAQRWMERLKTVAGSKMQGLLERVNTEIHFVTKCAFQPPPSCLRFVQTNISRLLQETSEQLVALKPWITRQNFSRCLELQCQPDSSTLPPPWSPRPLEATAPTAPQGGPSVFLFPPKPKDTLYITREPEVTCVVVDVSHEDPEVKFNWYVDGVEVHNAKTKPREEQYNSTYRVVSVLTVLHQDWLNGKEYKCKVSNKALPAPIEKTISKAKGQPREPQVYTLPPSREEMTKNQVSLTCLVKGFYPSDIAVEWESNGQPENNYKTTPPVLDSDGSFFLYSKLTVDKSRWQQGNVFSCSVMHEALHNHYTQKSLSLSPGK
notes: also called FLT3L ECD-hingeless hG1 (M252Y/S254T/T256E)
Take B4: in the assay with recombinant human FcRn [1], the “fold increase in FcRn binding against SEQ ID NO:1” value was found to be 38 fold. In [2], the “EC50 (nM), AML5 proliferation” value stood at 0.037 nM. Besides, in assay [3], the binding result is given as “no binding (tested: 94 nM (highest of the titration))”. In addition, the EC50 came out at 61 nM with recombinant human FcRn [4] and 0.88 nM in [5].
